# Test results as given in IntAct's records for PubMed 15665853.
# B1: Spindle assembly abnormal protein 5 (Caenorhabditis elegans), Q20010 (parent)
# chain: MNNYDDLPCSIYFKKPTVQEFVDQPRVFEDSEVPAFQEVLQLPQERTKPPVPSTQPIVAAVEVAKKKSCLSAPKPRKEPPSHPALRQKTVAFGKTVNVSQTVEGTSRNSKKVLASTMSAQNTTTTEEQAAENWRDAMKTELQTIRTEIQEETARRQEELNAQNLVKMQELMSNFFQKITIPKQQAIEPVEKDKENFHESPRQSRQQKPASKIASAREVIKRDGVIPPEALTIIEQRLRSDPMFRQQIDNVLADAECDANRAAYSPPPPMSEVRYGSGVNPALMRETLTVERSIRYDNGLASIDSRQWTNERRDNRAPDSYRTYEPDQPCHSLYQKGQSISYYPSEAAGKTTARNNRTGYYVEDSSDHEEDVVVNKRGQNYHEQAVPETPAERERRIREKYARRK
# partner: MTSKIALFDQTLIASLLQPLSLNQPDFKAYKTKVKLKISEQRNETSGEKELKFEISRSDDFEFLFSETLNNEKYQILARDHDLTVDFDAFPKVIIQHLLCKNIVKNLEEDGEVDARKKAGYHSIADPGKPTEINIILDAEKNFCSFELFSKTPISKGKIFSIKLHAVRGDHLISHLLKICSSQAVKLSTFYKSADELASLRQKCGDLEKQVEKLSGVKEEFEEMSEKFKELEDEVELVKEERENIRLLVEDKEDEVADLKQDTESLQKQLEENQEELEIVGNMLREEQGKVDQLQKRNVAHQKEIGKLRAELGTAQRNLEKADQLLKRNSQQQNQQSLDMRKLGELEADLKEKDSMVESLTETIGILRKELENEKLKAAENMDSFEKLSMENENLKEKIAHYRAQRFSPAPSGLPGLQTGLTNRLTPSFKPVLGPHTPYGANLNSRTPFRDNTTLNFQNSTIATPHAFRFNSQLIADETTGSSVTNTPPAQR
# Variants of: B1
# Conditions: with sas6_caeel sas-6, O62479
row,Variant,effect of a mutation on the interaction
1,R397C,decreasing interaction
